T1: human FcγRIIa type R extracellular domain with C-terminal His tag (human, UniProt P12318 34-217)
T1 construct: extracellular domain; also called FcγRIIaR; FcgRIIaR
T1 sequence (looked up): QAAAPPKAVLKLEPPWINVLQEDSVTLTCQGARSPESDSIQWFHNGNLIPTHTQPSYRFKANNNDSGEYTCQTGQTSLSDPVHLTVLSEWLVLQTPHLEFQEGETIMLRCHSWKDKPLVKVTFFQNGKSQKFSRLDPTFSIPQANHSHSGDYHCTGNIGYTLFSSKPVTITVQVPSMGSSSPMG

T2: human FcγRIIa type R extracellular domain with C-terminal His tag (human, UniProt P12318 34-217)
T2 construct: extracellular domain; also called FcγRIIaR; FcgRIIaR
T2 sequence (looked up): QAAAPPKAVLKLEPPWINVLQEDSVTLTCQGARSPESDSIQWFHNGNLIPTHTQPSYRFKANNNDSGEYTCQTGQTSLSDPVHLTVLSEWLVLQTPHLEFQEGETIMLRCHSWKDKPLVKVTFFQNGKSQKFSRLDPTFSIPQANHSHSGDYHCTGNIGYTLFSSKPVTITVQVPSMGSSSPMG

T3: human FcγRIIb extracellular domain with C-terminal His tag (human, UniProt P31994 43-217)
T3 construct: extracellular domain; also called FcgRIIb
T3 sequence (looked up): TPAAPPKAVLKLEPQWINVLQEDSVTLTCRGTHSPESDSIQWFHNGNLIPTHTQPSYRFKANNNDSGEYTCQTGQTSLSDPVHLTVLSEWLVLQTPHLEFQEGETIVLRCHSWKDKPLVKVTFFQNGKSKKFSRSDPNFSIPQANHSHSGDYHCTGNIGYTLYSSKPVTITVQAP

T4: human FcγRIIa type H extracellular domain with C-terminal His tag (human, UniProt P12318 34-217)
T4 construct: extracellular domain; also called FcγRIIaH; FcgRIIaH
T4 sequence (looked up): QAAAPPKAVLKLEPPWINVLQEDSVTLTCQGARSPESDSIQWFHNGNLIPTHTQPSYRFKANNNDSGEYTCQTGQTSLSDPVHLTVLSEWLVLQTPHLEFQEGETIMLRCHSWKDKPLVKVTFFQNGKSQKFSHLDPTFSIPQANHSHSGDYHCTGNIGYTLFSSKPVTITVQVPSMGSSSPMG


Tests used:
[1] = molecular target: T5, human FcγRIIIa type V extracellular domain with C-terminal His tag (human, UniProt P08637 17-208); experiment: SPR (Biacore)
T5 construct: extracellular domain; also called FcγRIIIaV; FcgRIIIaV
T5 sequence (P08637 17-208 F176V): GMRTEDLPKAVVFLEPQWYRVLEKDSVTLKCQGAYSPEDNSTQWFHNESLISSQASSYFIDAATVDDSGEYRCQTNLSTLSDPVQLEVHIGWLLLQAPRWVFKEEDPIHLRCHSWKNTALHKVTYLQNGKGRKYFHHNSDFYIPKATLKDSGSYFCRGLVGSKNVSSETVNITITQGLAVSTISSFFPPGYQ

[2] = molecular target: T1, human FcγRIIa type R extracellular …; experiment: SPR (Biacore)
[3] = molecular target: T2, human FcγRIIa type R extracellular …; experiment: SPR (Biacore), antibody captured, FcγR as analyte
[4] = molecular target: T6, human FcγRIa extracellular domain with C-terminal His tag (human, UniProt P12314 16-292); experiment: SPR (Biacore), antibody captured, FcγR as analyte
T6 construct: also called FcgRIa
T6 sequence (P12314 16-292): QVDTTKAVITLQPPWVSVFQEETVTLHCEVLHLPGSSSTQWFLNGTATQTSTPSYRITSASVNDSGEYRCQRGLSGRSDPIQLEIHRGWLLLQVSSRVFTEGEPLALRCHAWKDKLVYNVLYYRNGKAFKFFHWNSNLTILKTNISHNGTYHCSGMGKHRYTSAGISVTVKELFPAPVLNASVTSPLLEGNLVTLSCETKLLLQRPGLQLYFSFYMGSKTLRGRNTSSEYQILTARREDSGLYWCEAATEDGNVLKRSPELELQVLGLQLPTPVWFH

[5] = molecular target: T3, human FcγRIIb extracellular domain with …; experiment: SPR (Biacore), antibody captured, FcγR as analyte
[6] = molecular target: T4, human FcγRIIa type H extracellular …; experiment: SPR (Biacore)
[7] = molecular target: T7, human FcγRIIIa type V (allotype V158) extracellular domain with C-terminal His tag (human, UniProt P08637 17-208); experiment: SPR (Biacore), antibody captured, FcγR analyte
T7 construct: extracellular domain; also called FcγRIIIaV; FcγRIIIa V type; not shown: His tag at the C terminus
T7 sequence (P08637 17-208 F176V): as the sequence (P08637 17-208 F176V) above

Row | Kd [2] [µM] | Kd [3] [µM] | Kd [4] [nM] | KD(IIb) of parent polypeptide/KD(IIb) of altered polypeptide [5] [fold vs IL6R-B3/IL6R-L] | Binder | other results
1 | 5 |  |  |  | IL6R-2B253/IL6R-L (antibody, human IgG1, kappa, EU numbering; alterations on IL6R-B3; copies: 2 + 2) heavy: QVQLQESGPGLVKPSETLSLTCAVSGHSISHDHAWSWVRQPPGEGLEWIGFISYSGITNYNPSLQGRVTISRDNSKNTLYLQMNSLRAEDTAVYYCARSLARTTAMDYWGEGTLVTVSSASTKGPSVFPLAPSSKSTSGGTAALGCLVKDYFPEPVTVSWNSGALTSGVHTFPAVLQSSGLYSLSSVVTVPSSSLGTQTYICNVNHKPSNTKVDKKVEPKSCDKTHTCPPCPAPDLLGGDSVFLFPPKPKDTLMISRTPEVTCVVVDVSHEDPEVKFNWYVDGVEVHNAKTKPREEQYNSTYRVVSVLTVLHQDWLNGKEYKCKMSNKALPAPIEKTISKAKGQPREPQVYTLPPSRDELTKNQVSLTCLVKGFYPSDIAVEWESNGQPENNYKTTPPVLDSDGSFFLYSKLTVDKSRWQQGNVFSCSVMHEALHNHYTQESLSLSP light: not shown | Kd [1]: 50 µM
2 |  | 11 | 4 | 3.3 | IL6R-BP106/IL6R-L (antibody, human IgG1, kappa, IgG1 type) heavy: QVQLQESGPGLVKPSETLSLTCAVSGHSISHDHAWSWVRQPPGEGLEWIGFISYSGITNYNPSLQGRVTISRDNSKNTLYLQMNSLRAEDTAVYYCARSLARTTAMDYWGEGTLVTVSSASTKGPSVFPLAPSSKSTSGGTAALGCLVKDYFPEPVTVSWNSGALTSGVHTFPAVLQSSGLYSLSSVVTVPSSSLGTQTYICNVNHKPSNTKVDKKVEPKSCDKTHTCPPCPAPELLGGDSVFLFPPKPKDTLMISRTPEVTCVVVDVSDEDPEVKFNWYVDGVEVHNAKTKPREEQYNSTYRVVSVLTVLHQDWLNGKEYKCKVSNKALPAPIEKTISKAKGQPREPQVYTLPPSRDELTKNQVSLTCLVKGFYPSDIAVEWESNGQPENNYKTTPPVLDSDGSFFLYSKLTVDKSRWQQGNVFSCSVMHEALHNHYTQESLSLSP light: not shown | 
3 | 8 |  |  |  | IL6R-BP132/IL6R-L (antibody, human IgG1, kappa, EU numbering; alterations on IL6R-B3; copies: 2 + 2) heavy: QVQLQESGPGLVKPSETLSLTCAVSGHSISHDHAWSWVRQPPGEGLEWIGFISYSGITNYNPSLQGRVTISRDNSKNTLYLQMNSLRAEDTAVYYCARSLARTTAMDYWGEGTLVTVSSASTKGPSVFPLAPSSKSTSGGTAALGCLVKDYFPEPVTVSWNSGALTSGVHTFPAVLQSSGLYSLSSVVTVPSSSLGTQTYICNVNHKPSNTKVDKKVEPKSCDKTHTCPPCPAPDLLGGDSVFLFPPKPKDTLMISRTPEVTCVVVDVSHEDPEVKFNWYVDGVEVHNAKTKPREEQYNSTYRVVSVLTVLHQDWLNGKEYKCKVSNAALPKPIEKTISKAKGQPREPQVYTLPPSRDELTKNQVSLTCLVKGFYPSDIAVEWESNGQPENNYKTTPPVLDSDGSFFLYSKLTVDKSRWQQGNVFSCSVMHEALHNHYTQESLSLSP light: not shown | Kd [6]: 30 µM
4 |  | 6.1 | 3 | 4 | IL6R-2B172/IL6R-L (antibody, human IgG1, kappa, IgG1 type) heavy: QVQLQESGPGLVKPSETLSLTCAVSGHSISHDHAWSWVRQPPGEGLEWIGFISYSGITNYNPSLQGRVTISRDNSKNTLYLQMNSLRAEDTAVYYCARSLARTTAMDYWGEGTLVTVSSASTKGPSVFPLAPSSKSTSGGTAALGCLVKDYFPEPVTVSWNSGALTSGVHTFPAVLQSSGLYSLSSVVTVPSSSLGTQTYICNVNHKPSNTKVDKKVEPKSCDKTHTCPPCPAPELLGGDSVFLFPPKPKDTLMISRTPEVTCVVVDVSHEDPEVKFNWYVDGVEVHNAKTKPREEQYNSTYRVVSVLTVLHQDWLNGKEYKCKMSNKALPAPIEKTISKAKGQPREPQVYTLPPSRDELTKNQVSLTCLVKGFYPSDIAVEWESNGQPENNYKTTPPVLDSDGSFFLYSKLTVDKSRWQQGNVFSCSVMHEALHNHYTQESLSLSP light: not shown | 
5 | 4.2 |  |  |  | IL6R-BP085/IL6R-L (antibody, human IgG1, kappa, EU numbering; alterations on IL6R-B3; copies: 2 + 2) heavy: QVQLQESGPGLVKPSETLSLTCAVSGHSISHDHAWSWVRQPPGEGLEWIGFISYSGITNYNPSLQGRVTISRDNSKNTLYLQMNSLRAEDTAVYYCARSLARTTAMDYWGEGTLVTVSSASTKGPSVFPLAPSSKSTSGGTAALGCLVKDYFPEPVTVSWNSGALTSGVHTFPAVLQSSGLYSLSSVVTVPSSSLGTQTYICNVNHKPSNTKVDKKVEPKSCDKTHTCPPCPAPELLGDDSVFLFPPKPKDTLMISRTPEVTCVVVDVSHEDPEVKFNWYVDGVEVHNAKTKPREEQYNSTYRVVSVLTVLHQDWLNGKEYKCKVSNKALPKPIEKTISKAKGQPREPQVYTLPPSRDELTKNQVSLTCLVKGFYPSDIAVEWESNGQPENNYKTTPPVLDSDGSFFLYSKLTVDKSRWQQGNVFSCSVMHEALHNHYTQESLSLSP light: not shown | Kd [1]: 68 µM
6 |  |  |  |  | IL6R-BP231/IL6R-L (antibody, human IgG1, kappa, copies: 2 + 2) heavy: QVQLQESGPGLVKPSETLSLTCAVSGHSISHDHAWSWVRQPPGEGLEWIGFISYSGITNYNPSLQGRVTISRDNSKNTLYLQMNSLRAEDTAVYYCARSLARTTAMDYWGEGTLVTVSSASTKGPSVFPLAPSSKSTSGGTAALGCLVKDYFPEPVTVSWNSGALTSGVHTFPAVLQSSGLYSLSSVVTVPSSSLGTQTYICNVNHKPSNTKVDKKVEPKSCDKTHTCPPCPAPELLGDDSVFLFPPKPKDTLMISRTPEVTCVVVDVSDEDGEVKFNWYVDGVEVHNAKTKPREEQDNSTYRVVSVLTVLHQDWLNGKEYKCKVSNKALPRPIEKTISKAKGQPREPQVYTLPPSRDELTKNQVSLTCLVKGFYPSDIAVEWESNGQPENNYKTTPPVLDSDGSFFLYSKLTVDKSRWQQGNVFSCSVMHEALHNHYTQESLSLSP light: not shown | Kd [7]: 40 µM
7 |  | 9.9 | 7 | 2.7 | IL6R-BP119/IL6R-L (antibody, human IgG1, kappa, IgG1 type) heavy: QVQLQESGPGLVKPSETLSLTCAVSGHSISHDHAWSWVRQPPGEGLEWIGFISYSGITNYNPSLQGRVTISRDNSKNTLYLQMNSLRAEDTAVYYCARSLARTTAMDYWGEGTLVTVSSASTKGPSVFPLAPSSKSTSGGTAALGCLVKDYFPEPVTVSWNSGALTSGVHTFPAVLQSSGLYSLSSVVTVPSSSLGTQTYICNVNHKPSNTKVDKKVEPKSCDKTHTCPPCPAPELLGGDSVFLFPPKPKDTLMISRTPEVTCVVVDVSHEDPEVKFNWYVDGVEVHNAKTKPREEQYNSTYRVVSVLTVLHQDWLNGKEYKCKVSNMALPAPIEKTISKAKGQPREPQVYTLPPSRDELTKNQVSLTCLVKGFYPSDIAVEWESNGQPENNYKTTPPVLDSDGSFFLYSKLTVDKSRWQQGNVFSCSVMHEALHNHYTQESLSLSP light: not shown | 
8 |  |  |  |  | IL6R-BP217/IL6R-L (antibody, human IgG1, kappa, copies: 2 + 2) heavy: QVQLQESGPGLVKPSETLSLTCAVSGHSISHDHAWSWVRQPPGEGLEWIGFISYSGITNYNPSLQGRVTISRDNSKNTLYLQMNSLRAEDTAVYYCARSLARTTAMDYWGEGTLVTVSSASTKGPSVFPLAPSSKSTSGGTAALGCLVKDYFPEPVTVSWNSGALTSGVHTFPAVLQSSGLYSLSSVVTVPSSSLGTQTYICNVNHKPSNTKVDKKVEPKSCDKTHTCPPCPAPELLGDDSVFLFPPKPKDTLMISRTPEVTCVVVDVQDEDGEVKFNWYVDGVEVHNAKTKPREEQDNSTYRVVSVLTVLHQDWLNGKEYKCKVSNKALPKPIEKTISKAKGQPREPQVYTLPPSRDELTKNQVSLTCLVKGFYPSDIAVEWESNGQPENNYKTTPPVLDSDGSFFLYSKLTVDKSRWQQGNVFSCSVMHEALHNHYTQESLSLSP light: not shown | Kd [7]: 60 µM

— patent US20220389118A1 (Chugai, published 2022)
